The results in this text go back to publication PMC12567083, “N-terminal oligomerization drives HDAC4 nuclear condensation and neurodevelopmental dysfunction in Drosophila” (Open Biology, 2025).

Changes are numbered by the printed parent chain.

B1: HDAC4^N-WT (N-terminal fragment of Drosophila HDAC4, Pro37 to Gln143) (domain or fragment, UniProt Q9VYF3 37-143, looked up)
chain: PHPAVDIDQQIMELKKSQELQKQRLINSFQEQSKQMELEHKLQLEHKYQFAVNSHGAFQELRNESMVTAAAAAVAQEQHRQQLHQQQQQHQQQQQQQQHQQQQQQQQ
notes: Drosophila HDAC4 (DmHDAC4), translation of nucleotides 461-4216 of NCBI NM_132640; residues Pro37-Gln143, the region that corresponds to Ala62-Gln153 of human HDAC4; codon optimised for E. coli; Cloned in pET-15B in frame with the N-terminal 6x His tag; Which UniProt isoform equals the translation of NM_132640 is not known to me; also called wild-type N-terminal HDAC4
B2: HDAC4^N-S69F (domain or fragment, Drosophila, UniProt Q9VYF3 37-143, looked up)
chain: B1 chain with S33F
notes: Drosophila HDAC4 (DmHDAC4), translation of nucleotides 461-4216 of NCBI NM_132640; residues Pro37-Gln143 with Ser69Phe; Made by mutagenesis of HDAC4^N-WT in pET-15B
B3: HDAC4^N-F65A (domain or fragment, Drosophila, UniProt Q9VYF3 37-143, looked up)
chain: B1 chain with F29A
notes: Drosophila HDAC4 (DmHDAC4), translation of nucleotides 461-4216 of NCBI NM_132640; residues Pro37-Gln143 with Phe65Ala; Made by mutagenesis of HDAC4^N-WT in pET-15B

The data set concerns the molecule itself. Briefly: cross-linking; 0.5 mg/ml HDAC4^N in SEC buffer (30 mM HEPES pH 7.6, 150 mM NaCl) with 0.2 mM or 2.0 mM disuccinimidyl suberate (DSS), 30 min at room temperature, quenched with Tris; SDS-PAGE and colloidal Coomassie.
Regarding B1, the binding result is on record as “binds”.
Regarding B2, the binding result is “binds”.
The result for B3 reads “binds”.
